Test results published in patent US20200231688A1 (published 2020).

T1: soluble recombinant human IL-6 receptor (SR344) (human, UniProt P08887 20-344)
T1 construct: range 1-344; also called soluble IL-6 receptor; soluble human IL-6 receptor
T1 sequence (looked up): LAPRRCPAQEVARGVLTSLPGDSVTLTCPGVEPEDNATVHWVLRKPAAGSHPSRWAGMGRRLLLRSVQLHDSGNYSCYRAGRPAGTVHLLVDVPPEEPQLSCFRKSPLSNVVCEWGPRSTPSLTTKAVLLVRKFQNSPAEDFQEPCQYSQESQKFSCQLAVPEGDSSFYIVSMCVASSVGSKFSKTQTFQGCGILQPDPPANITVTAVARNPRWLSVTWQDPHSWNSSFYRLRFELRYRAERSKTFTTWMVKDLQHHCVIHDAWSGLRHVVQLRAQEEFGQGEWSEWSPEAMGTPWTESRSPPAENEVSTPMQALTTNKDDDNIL


Experiments:
[1] = target: T1, soluble recombinant human IL-6 receptor …; test: SPR Biacore T100, 37 C; biotinylated SR344 immobilised via streptavidin as membrane-type IL-6 receptor; ratio of dissociation rates
Experimental: (§1) The binding to membrane-type IL-6 receptor was assessed by evaluating the binding to soluble human IL-6 receptor immobilized onto the sensor chip. SR344 was biotinylated by a method known to those skilled in the art. Based on the affinity between biotin and streptavidin, biotinylated soluble human IL-6 receptor was immobilized onto the sensor chip via streptavidin. All measurements were conducted at 37° C. The mobile phase buffer was 10 mM MES (pH 5.8), 150 mM NaCl, and 0.05% Tween 20. […] The dissociation rate constant (kd (1/s)) at pH 5.8 was calculated using Biacore T100 Evaluation Software (GE Healthcare) by fitting only the dissociation phase at pH 5.8. The sample concentration was 0.25 pg/ml. Binding was carried out in 10 mM MES (pH 7.4), 150 mM NaCl, and 0.05% Tween 20, and dissociation was carried out in 10 mM MES (pH 5.8), 150 mM NaCl, and 0.05% Tween 20. Likewise, the dissociation rate constant (kd (1/s)) at pH 7.4 was calculated using Biacore T100 Evaluation Software (GE Healthcare) by fitting only the dissociation phase at pH 7.4. The sample concentration was 0.5 pg/ml. Binding was carried out in 10 mM MES (pH 7.4), 150 mM NaCl, and 0.05% Tween 20, and dissociation was carried out in 10 mM MES (pH 7.4), 150 mM NaCl, and 0.05% Tween 20.

[2] = target: T1, soluble recombinant human IL-6 receptor …; test: SPR Biacore T100; immobilised biotinylated SR344 as membrane-type IL-6 receptor; against TOCILIZUMAB
Experimental: as §1

| kd(pH 5.8)/kd(pH 7.4) pH … [1] | fold increase of pH dependence of the dissociation rate against TOCILIZUMAB [2] [times] | fold improvement of pH dependency of the dissociation rate against TOCILIZUMAB [2] [times] | Binder |
| --- | --- | --- | --- |
| 1 |  |  | TOCILIZUMAB (antibody, human IgG1, kappa, Humanized anti-IL-6 receptor IgG1 antibody; H chain WT-IgG1, L chain WT-kappa; also called TOCILIZUMAB-IgG1; WT-IgG1/WT-kappa) heavy: not shown light: not shown |
|  | ~2.6 |  | H3pI/L73 (antibody, human IgG1, kappa, V domains shown, also called H3pI-IgG1/L73-kappa) VH: QVQLQESGPGLVKPSETLSLTCAVSGHSISHDHAHSWVRQPPGEGLEWIGYISYSGITNYNPSLKGRVTISRDTSKNQFSLKLSSVTAADTAAYYCARSLARTTAMDYWGEGTLVTVSS VL: DIQMTQSPSSLSASVGDSVTITCQASQHISSHLNWYQQKPGKAPELLIYYGSHLHSGVPSRFSGSGSGTDFTFTISSLEAEDAATYYCGQGNRLPYTFGQGTKVEIER |

Further lines, the binder ahead of its results:

| Binder | kd(pH 5.8)/kd(pH 7.4) pH … [1] | fold increase of pH dependence of the dissociation rate against TOCILIZUMAB [2] [times] | fold improvement of pH dependency of the dissociation rate against TOCILIZUMAB [2] [times] |
| --- | --- | --- | --- |
| Fv3-M73 (antibody, V domains shown, Fully humanized IL-6 receptor antibody; also called VH4-M73/VL1-kappa) VH: QVQLQESGPGLVKPSETLSLTCAVSGHSISHDHAWSWVRQPPGEGLEWIGFISYSGITNYNPTLQGRVTISRDNSKNTLYLQMNSLRAEDTAVYYCARSLARTTAMDYWGEGTLVTVSS VL: DIQMTQSPSSLSASVGDSVTITCQASRDISSHLNWYQQKPGKAPELLIYYGSHLLSGVPSRFSGSGSGTDFTFTISSLEAEDAATYYCGQGNRLPYTFGQGTKVEIER | 10.9 |  | ~11 |
| Fv4-M73 (antibody, V domains shown, Fully humanized IL-6 receptor antibody; also called VH3-M73/VL3-kappa) VH: QVQLQESGPGLVKPSETLSLTCAVSGHSISHDHAWSWVRQPPGEGLEWIGFISYSGITNYNPSLQGRVTISRDNSKNTLYLQMNSLRAEDTAVYYCARSLARTTAMDYWGEGTLVTVSS VL: DIQMTQSPSSLSASVGDSVTITCQASTDISSHLNWYQQKPGKAPELLIYYGSHLLSGVPSRFSGSGSGTDFTFTISSLEAEDAATYYCGQGNRLPYTFGQGTKVEIER | 10.1 |  | ~10 |
